Reference: the supplement of paper PMC10567573

B1: TRIB1 (parent)
chain: EIGTSDQIVPEYQEDSDISSFFC

Variants of: B1
Assay: protein stability index of a GFP-peptide fusion (GPS, HEK-293T) (PSI 1-6); higher = more stable
Conditions: c terminus: native
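Also: lentivirally expressed fusions sorted by FACS into six bins by GFP to DsRed ratio, PSI derived from sequencing read proportions per bin multiplied by bin number.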

Variant	protein stability index
EIGTSDQITPEYQEDSDISSFFC [V9T]	5.53
EIGTSDQIGPEYQEDSDISSFFC [V9G]	5.29
EIGTSDQIRPEYQEDSDISSFFC [V9R]	4.88
EIGTSDQINPEYQEDSDISSFFC [V9N]	5.57
EIGTSDQIEPEYQEDSDISSFFC [V9E]	5.74
EIGTSDQIKPEYQEDSDISSFFC [V9K]	5.49
EIGTSDQIWPEYQEDSDISSFFC [V9W]	4.34
EIGTSDQIAPEYQEDSDISSFFC [V9A]	5.16
EIGTSDQIDPEYQEDSDISSFFC [V9D]	5.51
EIGTSDQIHPEYQEDSDISSFFC [V9H]	5.32
EIGTSDQIIPEYQEDSDISSFFC [V9I]	4.93
EIGTSDQIYPEYQEDSDISSFFC [V9Y]	5.2
EIGTSDQICPEYQEDSDISSFFC [V9C]	5.31
EIGTSDQIPPEYQEDSDISSFFC [V9P]	5.38
EIGTSDQIMPEYQEDSDISSFFC [V9M]	5.12
EIGTSDQISPEYQEDSDISSFFC [V9S]	5.26
EIGTSDQIQPEYQEDSDISSFFC [V9Q]	5.78
EIGTSDQIFPEYQEDSDISSFFC [V9F]	4.94
EIGTSDQILPEYQEDSDISSFFC [V9L]	4.95
EIGTSDQIVPEYQECSDISSFFC [D15C]	2.62
EIGTSDQIVPEYQEESDISSFFC [D15E]	2.2
EIGTSDQIVPEYQEHSDISSFFC [D15H]	3.28
EIGTSDQIVPEYQEASDISSFFC [D15A]	3.59
EIGTSDQIVPEYQEFSDISSFFC [D15F]	2.24
EIGTSDQIVPEYQEISDISSFFC [D15I]	2.28

Variant	protein stability index
EIGTSDQIVPEYQEGSDISSFFC [D15G]	3.71
EIGTSDQIVPEYQEKSDISSFFC [D15K]	3.42
EIGTSDQIVPERQEDSDISSFFC [Y12R]	4.61
EIGTSDQIVPEPQEDSDISSFFC [Y12P]	3.4
EIGTSDQIVPEIQEDSDISSFFC [Y12I]	2.91
EIGTSDQIVPEHQEDSDISSFFC [Y12H]	4.37
EIGTSDQIVPEKQEDSDISSFFC [Y12K]	5.54
EIGTSDQIVPEGQEDSDISSFFC [Y12G]	3.27
EIGTSDQIVPEMQEDSDISSFFC [Y12M]	2.12
EIGTSDQIVPEEQEDSDISSFFC [Y12E]	4.77
EIGTSDQIVPETQEDSDISSFFC [Y12T]	4.48
EIGTSDQIVPEQQEDSDISSFFC [Y12Q]	4.51
EIGTSDQIVPEVQEDSDISSFFC [Y12V]	3.07
EIGTSDQIVPEAQEDSDISSFFC [Y12A]	3.25
EIGTSDQIVPESQEDSDISSFFC [Y12S]	4.19
EIGTSDQIVPELQEDSDISSFFC [Y12L]	3.06
EIGTSDQIVPEDQEDSDISSFFC [Y12D]	5.11
EIGTSDQIVPENQEDSDISSFFC [Y12N]	5.03
EIGTSDQIVPEWQEDSDISSFFC [Y12W]	2.44
EIGTSDQIVPECQEDSDISSFFC [Y12C]	3.68
EIGTSDQIVPEFQEDSDISSFFC [Y12F]	3.07
EIGTSDQIVVEYQEDSDISSFFC [P10V]	5.1
EIGTSDQIVIEYQEDSDISSFFC [P10I]	4.09
EIGTSDQIVAEYQEDSDISSFFC [P10A]	5.38
EIGTSDQIVYEYQEDSDISSFFC [P10Y]	4.71

Variant	protein stability index
EIGTSDQIVMEYQEDSDISSFFC [P10M]	5.19
EIGTSDQIVDEYQEDSDISSFFC [P10D]	5.63
EIGTSDQIVGEYQEDSDISSFFC [P10G]	4.82
EIGTSDQIVKEYQEDSDISSFFC [P10K]	5.56
EIGTSDQIVHEYQEDSDISSFFC [P10H]	5.41
EIGTSDQIVLEYQEDSDISSFFC [P10L]	4.87
EIGTSDQIVNEYQEDSDISSFFC [P10N]	5.23
EIGTSDQIVCEYQEDSDISSFFC [P10C]	5.2
EIGTSDQIVREYQEDSDISSFFC [P10R]	5.56
EIGTSDQIVEEYQEDSDISSFFC [P10E]	5.54
EIGTSDQIVFEYQEDSDISSFFC [P10F]	3.77
EIGTSDQIVWEYQEDSDISSFFC [P10W]	4.52
EIGTSDQIVSEYQEDSDISSFFC [P10S]	5.59
EIGTSDQIVQEYQEDSDISSFFC [P10Q]	4.9
EIGTSDQIVTEYQEDSDISSFFC [P10T]	5.48
EIGTSDEIVPEYQEDSDISSFFC [Q7E]	5.58
EIGTSDSIVPEYQEDSDISSFFC [Q7S]	5.2
EIGTSDAIVPEYQEDSDISSFFC [Q7A]	5.23
EIGTSDGIVPEYQEDSDISSFFC [Q7G]	5.28
EIGTSDKIVPEYQEDSDISSFFC [Q7K]	5.04
EIGTSDVIVPEYQEDSDISSFFC [Q7V]	5.02
EIGTSDFIVPEYQEDSDISSFFC [Q7F]	3.76
EIGTSDRIVPEYQEDSDISSFFC [Q7R]	5.27
EIGTSDNIVPEYQEDSDISSFFC [Q7N]	4.88
EIGTSDMIVPEYQEDSDISSFFC [Q7M]	4.79

Variant	protein stability index
EIGTSDTIVPEYQEDSDISSFFC [Q7T]	5.64
EIGTSDIIVPEYQEDSDISSFFC [Q7I]	4.95
EIGTSDPIVPEYQEDSDISSFFC [Q7P]	5.3
EIGTSDLIVPEYQEDSDISSFFC [Q7L]	4.94
EIGTSDWIVPEYQEDSDISSFFC [Q7W]	4
EIGTSDYIVPEYQEDSDISSFFC [Q7Y]	4.43
EIGTSDDIVPEYQEDSDISSFFC [Q7D]	5.53
EIGTSDCIVPEYQEDSDISSFFC [Q7C]	5.1
EIGTSDHIVPEYQEDSDISSFFC [Q7H]	5
EIGTSDQIVPEYCEDSDISSFFC [Q13C]	2.59
EIGTSDQIVPEYTEDSDISSFFC [Q13T]	1.97
EIGTSDQIVPEYPEDSDISSFFC [Q13P]	3.5
EIGTSDQIVPEYWEDSDISSFFC [Q13W]	1.72
EIGTSDQIVPEYSEDSDISSFFC [Q13S]	2.43
EIGTSDQIVPEYREDSDISSFFC [Q13R]	2.92
EIGTSDQIVPEYEEDSDISSFFC [Q13E]	2.77
EIGTSDQIVPEYYEDSDISSFFC [Q13Y]	2.12
EIGTSDQIVPEYHEDSDISSFFC [Q13H]	2.24
EIGTSDQIVPEYGEDSDISSFFC [Q13G]	2.13
EIGTSDQIVPEYIEDSDISSFFC [Q13I]	2.36
EIGTSDQIVPEYVEDSDISSFFC [Q13V]	2.52
EIGTSDQIVPEYKEDSDISSFFC [Q13K]	3.39
EIGTSDQIVPEYNEDSDISSFFC [Q13N]	1.9
EIGTSDQIVPEYLEDSDISSFFC [Q13L]	2.77
EIGTSDQIVPEYDEDSDISSFFC [Q13D]	2.9

Variant	protein stability index
EIGTSDQIVPEYAEDSDISSFFC [Q13A]	2.54
EIGTSDQIVPEYFEDSDISSFFC [Q13F]	1.81
EIGTSDQIVPEYMEDSDISSFFC [Q13M]	2.36
EIGTSRQIVPEYQEDSDISSFFC [D6R]	5.04
EIGTSNQIVPEYQEDSDISSFFC [D6N]	4.69
EIGTSKQIVPEYQEDSDISSFFC [D6K]	5.18
EIGTSEQIVPEYQEDSDISSFFC [D6E]	4.77
EIGTSYQIVPEYQEDSDISSFFC [D6Y]	4.65
EIGTSVQIVPEYQEDSDISSFFC [D6V]	4.57
EIGTSAQIVPEYQEDSDISSFFC [D6A]	4.92
EIGTSSQIVPEYQEDSDISSFFC [D6S]	5.45
EIGTSQQIVPEYQEDSDISSFFC [D6Q]	5.04
EIGTSTQIVPEYQEDSDISSFFC [D6T]	5.07
EIGTSMQIVPEYQEDSDISSFFC [D6M]	4.3
EIGTSHQIVPEYQEDSDISSFFC [D6H]	4.9
EIGTSPQIVPEYQEDSDISSFFC [D6P]	4.84
EIGTSGQIVPEYQEDSDISSFFC [D6G]	5.55
EIGTSWQIVPEYQEDSDISSFFC [D6W]	4.11
EIGTSLQIVPEYQEDSDISSFFC [D6L]	4.45
EIGTSFQIVPEYQEDSDISSFFC [D6F]	4.14
EIGTSCQIVPEYQEDSDISSFFC [D6C]	4.7
EIGTSIQIVPEYQEDSDISSFFC [D6I]	4.07
EIGTSDQIVPEYQCDSDISSFFC [E14C]	2.48
EIGTSDQIVPEYQVDSDISSFFC [E14V]	2.08
EIGTSDQIVPEYQPDSDISSFFC [E14P]	2

Variant	protein stability index
EIGTSDQIVPEYQGDSDISSFFC [E14G]	2.83
EIGTSDQIVPEYQRDSDISSFFC [E14R]	4.42
EIGTSDQIVPEYQADSDISSFFC [E14A]	2.81
EIGTSDQIVPEYQLDSDISSFFC [E14L]	1.99
EIGTSDQIVPEYQFDSDISSFFC [E14F]	2.33
EIGTSDQIVPEYQIDSDISSFFC [E14I]	1.68
EIGTSDQIVPEYQKDSDISSFFC [E14K]	4.03
EIGTSDQIVPEYQDDSDISSFFC [E14D]	2.65
EIGTSDQIVPEYQQDSDISSFFC [E14Q]	3.37
EIGTSDQIVPEYQYDSDISSFFC [E14Y]	2.43
EIGTSDQIVPEYQHDSDISSFFC [E14H]	3.56
EIGTSDQIVPEYQTDSDISSFFC [E14T]	2.81
EIGTSDQIVPEYQMDSDISSFFC [E14M]	2.4
EIGTSDQIVPEYQSDSDISSFFC [E14S]	2.88
EIGTSDQIVPEYQNDSDISSFFC [E14N]	2.94
EIGTSDQIVPEYQWDSDISSFFC [E14W]	1.7
EIGTSDQKVPEYQEDSDISSFFC [I8K]	4.03
EIGTSDQRVPEYQEDSDISSFFC [I8R]	3.56
EIGTSDQVVPEYQEDSDISSFFC [I8V]	2.07
EIGTSDQFVPEYQEDSDISSFFC [I8F]	5.17
EIGTSDQHVPEYQEDSDISSFFC [I8H]	5.15
EIGTSDQTVPEYQEDSDISSFFC [I8T]	4.29
EIGTSDQDVPEYQEDSDISSFFC [I8D]	5.12
EIGTSDQEVPEYQEDSDISSFFC [I8E]	4.19
EIGTSDQPVPEYQEDSDISSFFC [I8P]	5.36

Variant	protein stability index
EIGTSDQNVPEYQEDSDISSFFC [I8N]	5.32
EIGTSDQSVPEYQEDSDISSFFC [I8S]	5.18
EIGTSDQLVPEYQEDSDISSFFC [I8L]	4.11
EIGTSDQMVPEYQEDSDISSFFC [I8M]	3.54
EIGTSDQAVPEYQEDSDISSFFC [I8A]	4.82
EIGTSDQCVPEYQEDSDISSFFC [I8C]	3.62
EIGTSDQYVPEYQEDSDISSFFC [I8Y]	5.08
EIGTSDQWVPEYQEDSDISSFFC [I8W]	4.69
EIGTSDQGVPEYQEDSDISSFFC [I8G]	4.66
EIGTSDQQVPEYQEDSDISSFFC [I8Q]	3.93
EIGTSDQIVPCYQEDSDISSFFC [E11C]	2.61
EIGTSDQIVPIYQEDSDISSFFC [E11I]	3.43
EIGTSDQIVPPYQEDSDISSFFC [E11P]	3.5
EIGTSDQIVPWYQEDSDISSFFC [E11W]	4.16
EIGTSDQIVPSYQEDSDISSFFC [E11S]	3.1
EIGTSDQIVPYYQEDSDISSFFC [E11Y]	3.46
EIGTSDQIVPKYQEDSDISSFFC [E11K]	4.4
EIGTSDQIVPRYQEDSDISSFFC [E11R]	3.68
EIGTSDQIVPVYQEDSDISSFFC [E11V]	2.52
EIGTSDQIVPDYQEDSDISSFFC [E11D]	2.18
EIGTSDQIVPMYQEDSDISSFFC [E11M]	3.43
EIGTSDQIVPNYQEDSDISSFFC [E11N]	3.08
EIGTSDQIVPHYQEDSDISSFFC [E11H]	3.79
EIGTSDQIVPLYQEDSDISSFFC [E11L]	4.33
EIGTSDQIVPQYQEDSDISSFFC [E11Q]	3.12

Variant	protein stability index
EIGTSDQIVPAYQEDSDISSFFC [E11A]	4.09
EIGTSDQIVPTYQEDSDISSFFC [E11T]	2.77
EIGTSDQIVPFYQEDSDISSFFC [E11F]	3.63
EIGTSDQIVPGYQEDSDISSFFC [E11G]	2.25
EIGTLDQIVPEYQEDSDISSFFC [S5L]	2.95
EIGTMDQIVPEYQEDSDISSFFC [S5M]	2.56
EIGTGDQIVPEYQEDSDISSFFC [S5G]	3.2
EIGTHDQIVPEYQEDSDISSFFC [S5H]	3.06
EIGTTDQIVPEYQEDSDISSFFC [S5T]	2.2
EIGTIDQIVPEYQEDSDISSFFC [S5I]	2.95
EIGTFDQIVPEYQEDSDISSFFC [S5F]	2.31
EIGTWDQIVPEYQEDSDISSFFC [S5W]	3.02
EIGTVDQIVPEYQEDSDISSFFC [S5V]	3.15
EIGTRDQIVPEYQEDSDISSFFC [S5R]	2.77
EIGTYDQIVPEYQEDSDISSFFC [S5Y]	1.73
EIGTKDQIVPEYQEDSDISSFFC [S5K]	3.47
EIGTNDQIVPEYQEDSDISSFFC [S5N]	2.9
EIGTQDQIVPEYQEDSDISSFFC [S5Q]	2.42
EIGTPDQIVPEYQEDSDISSFFC [S5P]	3.07
